The experiment deals with Csk (UniProt P41240). In words: p140Cap IP, Csk western blot. Conditions: reference: wild type, sites Y264,Y396.

Experimental findings from article PMC3561454 are described below.

“p140Cap (from UniProt Q9C0H9) Y264F/Y396F double mutant”: the “binding against the reference” value is listed as “lost”.
In the case of “p140Cap (from UniProt Q9C0H9) Y264F/Y396F double mutant, FBS time course”, where the note is “FBS time course”, the “binding against the reference” value was “lost”.
